This is an account of results in US20230406942A1 (HORIZON THERAPEUTICS IRELAND DAC, published 2023).

Residue numbers refer to the chain shown, from its start.

Experiment [1] concerns the target T1, IGF-1R on NCI-H322 cells (UniProt P08069 31-1367, limits assumed). Description: cell-based or functional assay.
Experiment [2] concerns the target T1, IGF-1R on NCI-H322 cells. The experiment can be described thus: cell-based or functional assay. The source holds these as a separate data set.
For experiment [3], the target named is T2, IGF-1R (coated on Maxisorp plates) (UniProt P08069 31-932, limits assumed).
T2 construct: also called the receptor
T2 sequence (P08069 31-932 limits assumed): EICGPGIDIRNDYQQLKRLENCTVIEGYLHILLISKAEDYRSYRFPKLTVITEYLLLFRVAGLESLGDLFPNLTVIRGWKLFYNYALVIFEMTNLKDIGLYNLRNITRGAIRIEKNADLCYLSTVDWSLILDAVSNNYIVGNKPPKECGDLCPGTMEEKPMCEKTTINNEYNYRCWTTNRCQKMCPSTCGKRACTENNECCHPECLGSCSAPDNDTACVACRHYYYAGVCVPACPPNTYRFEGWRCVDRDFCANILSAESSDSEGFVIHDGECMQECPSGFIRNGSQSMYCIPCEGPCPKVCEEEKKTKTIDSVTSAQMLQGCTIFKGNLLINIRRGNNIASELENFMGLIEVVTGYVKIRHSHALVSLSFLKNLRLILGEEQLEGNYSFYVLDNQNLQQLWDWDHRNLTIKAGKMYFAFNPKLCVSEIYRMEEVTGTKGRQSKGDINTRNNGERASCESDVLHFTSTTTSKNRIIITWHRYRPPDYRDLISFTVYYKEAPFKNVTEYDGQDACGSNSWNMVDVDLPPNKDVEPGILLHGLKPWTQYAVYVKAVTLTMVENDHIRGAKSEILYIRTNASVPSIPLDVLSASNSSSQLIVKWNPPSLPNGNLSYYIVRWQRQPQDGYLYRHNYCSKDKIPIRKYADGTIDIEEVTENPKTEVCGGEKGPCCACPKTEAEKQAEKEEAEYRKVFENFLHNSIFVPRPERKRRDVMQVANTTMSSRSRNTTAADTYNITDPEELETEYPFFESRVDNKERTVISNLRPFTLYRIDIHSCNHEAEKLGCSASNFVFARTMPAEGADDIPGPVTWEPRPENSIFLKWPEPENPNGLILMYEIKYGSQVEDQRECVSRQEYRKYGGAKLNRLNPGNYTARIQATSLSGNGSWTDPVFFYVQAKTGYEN
Description: competition ELISA, plate-coated IGF-1R, antibody titrated against 20 ng/mL IGF-1 biotin. How it is done:
(§1) Maxisorp plates were coated with 1.5 ug/mL of IGF-1R overnight at 4° C. Plates were washed and blocked with 1% BSA. Subsequently, serially diluted anti-IGF1R antibodies were incubated for 30 min at room temperature followed by an incubation with a final concentration of 20 ng/mL IGF-1 biotin. Plates were washed and streptavidin-horseradish peroxidase was added. After a final wash, 3,3′,5,5′-Tetramethylbenzidine was added for 8 minutes. The reaction was terminated with a HCL based stop solution. Plates were measured for absorbance at 450 nm, and the data was analyzed using Softmax Pro 7.1 software.

For experiment [4], the target named is T2, IGF-1R (coated on Maxisorp plates). The experiment can be described thus: competition ELISA, plate-coated IGF-1R, antibody titrated against 200 ng/mL IGF-2 biotin. As to the method:
as §1, with “of 200” for “of 20”, “ng/mL of IGF-2” for “ng/mL IGF-1”
(An ELISA detects its analyte on a solid surface through an enzyme-linked reagent.)

Broadly, the IC50 is the midpoint of a concentration-inhibition curve. Read a low IC50 as greater potency in that assay.

T1 sequence (P08069 31-1367 limits assumed): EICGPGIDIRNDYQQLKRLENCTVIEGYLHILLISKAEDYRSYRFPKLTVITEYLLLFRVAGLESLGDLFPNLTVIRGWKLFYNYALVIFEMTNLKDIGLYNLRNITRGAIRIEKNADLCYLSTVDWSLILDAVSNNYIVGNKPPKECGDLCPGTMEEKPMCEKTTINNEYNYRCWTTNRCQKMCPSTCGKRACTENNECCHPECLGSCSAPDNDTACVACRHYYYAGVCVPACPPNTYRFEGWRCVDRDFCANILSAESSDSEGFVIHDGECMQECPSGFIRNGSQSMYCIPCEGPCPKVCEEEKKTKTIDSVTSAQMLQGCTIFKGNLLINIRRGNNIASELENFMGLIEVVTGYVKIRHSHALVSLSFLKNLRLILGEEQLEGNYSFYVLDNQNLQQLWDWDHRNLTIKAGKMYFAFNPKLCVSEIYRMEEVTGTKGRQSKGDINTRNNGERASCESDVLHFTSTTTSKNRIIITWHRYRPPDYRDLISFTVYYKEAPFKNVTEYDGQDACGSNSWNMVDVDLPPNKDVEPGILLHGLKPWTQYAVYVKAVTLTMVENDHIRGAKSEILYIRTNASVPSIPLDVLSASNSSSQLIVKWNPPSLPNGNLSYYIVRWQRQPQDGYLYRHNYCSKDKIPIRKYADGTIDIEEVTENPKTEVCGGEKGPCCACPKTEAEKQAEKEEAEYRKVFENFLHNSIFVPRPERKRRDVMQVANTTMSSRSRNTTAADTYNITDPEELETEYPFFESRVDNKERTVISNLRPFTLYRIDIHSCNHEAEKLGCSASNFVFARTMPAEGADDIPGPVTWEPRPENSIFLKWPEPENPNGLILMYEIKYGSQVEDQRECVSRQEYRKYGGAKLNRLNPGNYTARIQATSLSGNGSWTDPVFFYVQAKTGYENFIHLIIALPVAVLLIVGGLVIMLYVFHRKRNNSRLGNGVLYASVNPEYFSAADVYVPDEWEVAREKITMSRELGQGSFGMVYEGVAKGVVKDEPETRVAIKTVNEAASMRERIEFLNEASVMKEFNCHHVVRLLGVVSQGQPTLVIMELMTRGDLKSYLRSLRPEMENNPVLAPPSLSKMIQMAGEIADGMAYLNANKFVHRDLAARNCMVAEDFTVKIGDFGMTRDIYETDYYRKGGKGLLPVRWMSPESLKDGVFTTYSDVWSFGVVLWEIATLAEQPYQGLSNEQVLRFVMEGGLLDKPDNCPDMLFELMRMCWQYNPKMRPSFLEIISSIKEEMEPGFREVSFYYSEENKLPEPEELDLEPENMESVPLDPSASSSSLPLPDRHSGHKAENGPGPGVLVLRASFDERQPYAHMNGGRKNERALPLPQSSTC

B1: Teprotumumab reference antibody (antibody, V domains shown)
VH: QVELVESGGGVVQPGRSQRLSCAASGFTFSSYGMHWVRQAPGKGLEWVAIIWFDGSSTYYADSVRGRFTISRDNSKNTLYLQMNSLRAEDTAVYFCARELGRRYFDLWGRGTLVSVSS
VL: EIVLTQSPATLSLSPGERATLSCRASQSVSSYLAWYQQKPGQAPRLLIYDASKRATGIPARFSGSGSGTDFTLTISSLEPEDFAVYYCQQRSKWPPWTFGQGTKVESK
On to B1, for which the “Inhibition of Phosphorylation IC50” value in experiment [1] was 0.0106 µg/mL. Moreover, the “IC50 of inhibition of IGF-1R phosphorylation” value in experiment [2] was 0.397 µg/mL.

B2: D03-YTE (antibody, V domains shown)
VH: B1 VH with Y32H, I50Y
VL: B1 VL with Y32A, W94Y
With B2, in experiment [2], the “IC50 of inhibition of IGF-1R phosphorylation” value is 0.0205 µg/mL.

B3: E01 antibody (antibody, V domains shown)
VH: B1 VH
VL: B1 VL with W94Y
notes: Whole antibody
For B3, the results for the IC50 in experiment [3] and in experiment [4] were 0.388 µg/mL and 0.141 µg/mL, respectively. Besides, the “Inhibition of Phosphorylation IC50” value in experiment [1] came out at 0.0064 µg/mL.

B4: B10 antibody (antibody, V domains shown)
VH: B1 VH with I50T
VL: B1 VL with W94Y
notes: Whole antibody
On to B4, for which the results for the IC50 in experiment [3] and in experiment [4] were 0.395 µg/mL and 0.176 µg/mL, respectively. Also, the “Inhibition of Phosphorylation IC50” value in experiment [1] was determined as 0.0162 µg/mL.

B5: H11 antibody (antibody, V domains shown)
VH: B1 VH with I50T, F53H
VL: B1 VL with Y32A, S92G, W94Y
notes: Whole antibody
Consider B5, for which the IC50 came to 0.452 µg/mL in experiment [3] and 0.157 µg/mL in experiment [4]. In addition, in experiment [1], the “Inhibition of Phosphorylation IC50” value came to 0.0211 µg/mL.

B6: D03 antibody (antibody, V domains shown)
VH: B1 VH with Y32H, I50Y
VL: B1 VL with Y32A, W94Y
notes: Whole antibody; also called clone D03
B6: the figures for the IC50 in experiment [3] and in experiment [4] were 0.388 µg/mL and 0.161 µg/mL, respectively. The “Inhibition of Phosphorylation IC50” value in experiment [1] is 0.0049 µg/mL.
